To fix the notation:
B1: CpfC (protein)
chain: MTKKMGLLVMAYGTPYKESDIEPYYTDIRHGKRPSEEELQDLKDRYEFIGGLSPLAGTTDDQADALVSALNKAYADVEFKLYLGLKHISPFIEDAVEQMHNDGITEAITVVLAPHYSSFSVGSYDKRADEEAAKYGIQLTHVKHYYEQPKFIEYWTNKVNETLAQIPEEEHKDTVLVVSAHSLPKGLIEKNNDPYPQELEHTALLIKEQSNIEHIAIGWQSEGNTGTPWLGPDVQDLTRDLYEKHQYKNFIYTPVGFVCEHLEVLYDNDYECKVVCDDIGANYYRPKMPNTHPLFIGAIIDEIKSIF
modifications: coproporphyrin III bound to CpfC
B2: CpfC (protein)
chain: B1 chain
B3: ChdC (protein)
chain: MSQAAETLDGWYSLHLFYAVDWASLRIVPKDERDALVTEFQSFLENTATVRSSKSGDQAIYNITGQKADLLLWFLRPEMKSLNHIENEFNKLRIADFLIPTYSYVSVIELSNYLAGKSDEDPYENPHIKARLYPELPHSDYICFYPMNKRRNETYNWYMLTMEERQKLMYDHGMIGRKYAGKIKQFITGSVGFDDFEWGVTLFSDDVLQFKKIVYEMRFDETTARYGEFGSFFVGHIINTNEFDQFFAIS
modifications: coproporphyrin III bound to ChdC

Where a chain is given by its changes, count along the chain named.

Test [1] addresses T1, CpfC (coproporphyrin ferrochelatase; HemH) (Staphylococcus aureus, UniProt P64125).
T1 sequence (P64125 1-307): B1 chain with I300V
The experiment in a line: tryptophan fluorescence quenching. In kind it is binding. To be noted: 50 mM Tris pH 8, 150 mM NaCl, 25 °C.

Test [2] concerns the target T2, ChdC (SaChdC; coproheme decarboxylase) (Staphylococcus aureus, UniProt A6QEP0).
T2 sequence (A6QEP0 1-250): B3 chain
The experiment in a line: tryptophan fluorescence quenching. To be noted: 50 mM Tris pH 8, 150 mM NaCl, 25 °C; Langmuir-Hill fit. The format is binding.

In test [3] the target is T3, ChdC (Staphylococcus aureus, UniProt Q2FJ56).
T3 chain: B3 chain
The experiment in a line: UV-vis titration.

Test [4] addresses T3, ChdC. The experiment in a line: UV-vis titration and fluorescence quenching.
The test “CpfC” addresses B2. As to the kind of experiment: UV-vis titration.

We go through four molecules from publication PMC7160669 (Biochemistry, 2019).

For the molecule `CC1=C(CCC(=O)O)c2cc3nc(cc4[nH]c(cc5[nH]c(cc1n2)c(C)c5CCC(=O)O)c(CCC(=O)O)c4C)C(CCC(=O)O)=C3C` [coproporphyrin], the KD entry was “affinities of CpfC and/or ChdC for coproporphyrin and/or coproheme were measured titrimetrically” in test [1] and “ChdC binds coproporphyrin with an affinity that resembles that for coproheme” in test [2].
As usually defined, the Kd is the equilibrium constant for the complex coming apart. Read a low Kd as higher affinity. In the test with ChdC [3], B1 came in with a Kd of 80 µM.
As for B2, the Kd with ChdC [4] turned out to be 17 µM.
As for B3, in the test with CpfC, the Kd was determined as 40 µM.
